According to patent US20230285514A1, “STAPLED LACTAM CO-AGONISTS OF THE GLUCAGON AND GLP-1 RECEPTORS” (Merck Sharp & Dohme LLC, priority 2019, published 2023):
*1 amine or outer side, *2 acyl side, *3 side chain or, on linkers, in order; H or OH if unused. Where a SMILES comes first, the peptide text is derived from it. Bridges are numbered along the chain shown (N, C = ends). Where no end group is shown, it is not given here. Side-chain parts run from the residue outwards. [ ]: non-standard residue; d: D form. The star is where a group is joined. γGlu = O=C(O)[C@H](CCC(=O)[*:2])N[*:1]; Met(O2) = CS(=O)(=O)CC[C@H](N)C(=O)O; Palmitoyl = CCCCCCCCCCCCCCCC(=O)*; Nle = CCCC[C@H](N)C(=O)O; Ac4c = NC1(C(=O)O)CCC1; Aib = CC(C)(N)C(=O)O

B1: TP834 (peptide)
peptide: H[dS]QGTFTSDKSKYLDARAAQDFVKWLLET-NH2
modifications: lactam 24-28; not fully specified (residue 10); printed as HsQGTFTSDK(γEγEC16)SKYLDARAAQDFVK*WLLE*T-NH2
B2: TP844 (peptide)
peptide: H[Aib]QGTFTSDKSKYLDKRAAEDFVQWL[Met(O2)]DTK(γGlu)-NH2
modifications: lactam 16-20; not fully specified (residue 10); printed as HUQGTFTSDK(γEγEC16)SKYLDK*RAAE*DFVQWL2DTKγE-NH2
B3: Peptide SEQ ID No. 10 (TP706) (peptide)
peptide: H[dS]QGTFTSDKSKYLDKRAAEDFVQWLLDT-NH2
modifications: lactam 16-20; not fully specified (residue 10); printed as HsQGTFTSDK(γEγEC16)SKYLDK*RAAE*DFVQWLLDT-NH2
B4: TP861 (peptide)
peptide: H[Aib]QGTFTSDKSKYLD[Ac4c]RAAQDFVKWL[Met(O2)]ETK(γGlu)-NH2
modifications: lactam 24-28; not fully specified (residue 10)
B5: TP857 (peptide)
peptide: H[Aib]QGTFTSDKSKYLD[Ac4c]KAAQEFVQWL[Met(O2)]DTK(γGlu)-NH2
modifications: lactam 17-21; not fully specified (residue 10)
B6: TP850 (peptide)
peptide: H[Aib]QGTFTSDKSKYLD[Aib]RAAQDFVKWL[Met(O2)]ETK(γGlu)-NH2
modifications: lactam 24-28; not fully specified (residue 10); printed as HUQGTFTSDK(γEγEC16)SKYLDURAAQDFVK*WL2E*TKγE-NH2
B7: TP836 (peptide)
peptide: H[Aib]QGTFTSDKSKYLDKRAAEDFVQWL[Nle]DT-NH2
modifications: lactam 16-20; not fully specified (residue 10); printed as HUQGTFTSDK(γEγEC16)SKYLDK*RAAE*DFVQWL-Nle-DT-NH2
B8: TP486 (peptide)
peptide: H[Aib]QGTFTSDKSKYLD[Aib]RAAQDFVEWLMKTK(γGlu)-NH2
modifications: lactam 24-28; not fully specified (residue 10); printed as HUQGTFTSDK(γEγEC16)SKYLDURAAQDFVE*WLMK*TKγE-NH2
B9: TP710 (peptide)
peptide: H[dS]QGTFTSDKSKYLDAKAAQEFVQWLLDT-NH2
modifications: lactam 17-21; not fully specified (residue 10); printed as HsQGTFTSDK(γEγEC16)SKYLDAK*AAQE*FVQWLLDT-NH2
B10: TP846 (peptide)
peptide: H[Aib]QGTFTSDKSKYLD[Aib]RAAKDFVEWL[Met(O2)]DTK(γGlu)-NH2
modifications: lactam 20-24; not fully specified (residue 10); printed as HUQGTFTSDK(γEγEC16)SKYLDURAAK*DFVE*WL2DTKγE-NH2
B11: TP484 (peptide)
peptide: HXQGTFTSDXSKYLDERAAEDFVKWLLDT
modifications: s = D-Serine at 2; K10 conjugated to γEγE-C16 fatty acid; E*20 and K*24 cyclized to form a lactam containing ring; C-terminal amide
B12: TP848 (peptide)
peptide: H[Aib]QGTFTSDKSKYLD[Aib]KAAQEFVQWL[Met(O2)]DTK(γGlu)-NH2
modifications: lactam 17-21; not fully specified (residue 10); printed as HUQGTFTSDK(γEγEC16)SKYLDUK*AAQE*FVQWL2DTKγE-NH2
B13: TP485 (peptide)
peptide: H[dS]QGTFTSDKSKYLDERAAKDFVEWLLDT-NH2
modifications: lactam 20-24; not fully specified (residue 10); printed as HsQGTFTSDK(γEγEC16)SKYLDERAAK*DFVE*WLLDT-NH2
B14: TP840 (peptide)
peptide: H[Aib]QGTFTSDKSKYLD[Aib]KAAQEFVQWL[Nle]DT-NH2
modifications: lactam 17-21; not fully specified (residue 10); printed as HUQGTFTSDK(γEγEC16)SKYLDUK*AAQE*FVQWL-Nle-DT-NH2
B15: TP842 (peptide)
peptide: H[Aib]QGTFTSDKSKYLD[Aib]RAAQDFVKWL[Nle]ET-NH2
modifications: lactam 24-28; not fully specified (residue 10); printed as HUQGTFTSDK(γEγEC16)SKYLDURAAQDFVK*WL-Nle-E*T-NH2
B16: TP707 (peptide)
peptide: H[dS]QGTFTSDKSKYLDARAAKDFVEWLLDT-NH2
modifications: lactam 20-24; not fully specified (residue 10); printed as HsQGTFTSDK(γEγEC16)SKYLDARAAK*DFVE*WLLDT-NH2
B17: TP838 (peptide)
peptide: H[Aib]QGTFTSDKSKYLD[Aib]RAAKDFVEWL[Nle]DT-NH2
modifications: lactam 20-24; not fully specified (residue 10); printed as HUQGTFTSDK(γEγEC16)SKYLDURAAK*DFVE*WL-Nle-DT-NH2
B18: TP859 (peptide)
peptide: H[Aib]QGTFTSDKSKYLD[Ac4c]RAAKDFVEWL[Met(O2)]DTK(γGlu)-NH2
modifications: lactam 20-24; not fully specified (residue 10)
B19: TP115 (peptide)
peptide: H[dS]QGTFTSEK([γGlu-γGlu-C16 fatty acid])SKKLD[Aib]RAAQDFVQWLLATK(γGlu)-NH2
modifications: lactam 9-13

Experiments:
human GCGR = target: T1, human GCGR (Homo sapiens, UniProt P47871); assay: cAMP activity assay, cells expressing human GCGR; type: cell-based; details: ratio of human GCGR EC50 to human GLP1R EC50
T1 construct: expressed in transfected cells
Description: Activity of the peptides at the Glucagon receptor (GCGR) and GLP-1 receptor (GLP1R) was measured in a cAMP activity assay. Peptides were dissolved in 100% DMSO and serially diluted to generate 10 point titrations. The peptide solutions were then transferred into 384-well assay plates (150 nL/well). Assay ready frozen cells expressing human GLP1R or human GCGR were suspended in growth media consisting of DMEM medium (GIBCO), 10% FBS (GIBCO), 1×NEAA(GIBCO), 1×P/S (GIBCO), 10 ug/ml Blasticidin (GIBCO) and 200 μg/mL Hygromycin (GIBCO). […] The cell suspensions (15 μL) were then added to the assay plates containing the peptide solutions (30,000 cells/well for human GCGR; 10,000 cells/well for human GLP1R). […] Production of cAMP was determined using […] kits (DiscoverX) following manufacturer protocol. The plates were incubated for overnight at room temperature in the dark. Luminescence was measured using an EnVision Multilabel plate reader (Perkin Elmer). Native GLP-1 and Glucagon (Bachem) are used as control peptides.

[1] = target: human Glucagon receptor (GCGR) (human, UniProt P47871); assay: cell-based or functional assay
[2] = target: human GLP-1 receptor (GLP1R) (human, UniProt P43220); assay: cell-based or functional assay

T1 sequence (P47871 26-477): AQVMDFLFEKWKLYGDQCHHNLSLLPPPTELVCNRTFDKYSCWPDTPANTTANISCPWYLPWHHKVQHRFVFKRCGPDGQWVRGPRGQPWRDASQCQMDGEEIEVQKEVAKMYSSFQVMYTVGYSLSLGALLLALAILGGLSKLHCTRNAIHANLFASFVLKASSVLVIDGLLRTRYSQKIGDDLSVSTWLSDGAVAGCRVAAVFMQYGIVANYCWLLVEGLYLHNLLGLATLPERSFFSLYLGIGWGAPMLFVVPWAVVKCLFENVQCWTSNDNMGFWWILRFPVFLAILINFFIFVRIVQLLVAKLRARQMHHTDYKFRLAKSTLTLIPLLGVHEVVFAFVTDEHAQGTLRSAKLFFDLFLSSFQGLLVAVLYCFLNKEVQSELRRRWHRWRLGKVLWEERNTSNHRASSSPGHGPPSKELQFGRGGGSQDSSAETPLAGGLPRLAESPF

Row | Molecule | hGCGR/hGLPIR (hTone) (human GCGR) | GCGR EC50 human (nM), cAMP activity assay [1] | GLP1R EC50 human (nM), cAMP activity assay [2]
1 | CCCCCCCCCCCCCCCC(=O)N[C@@H](CCC(=O)N[C@@H](CCC(=O)NCCCC[C@H](NC(=O)[C@H](CC(=O)O)NC(=O)[C@H](CO)NC(=O)[C@@H](NC(=O)[C@H](Cc1ccccc1)NC(=O)[C@@H](NC(=O)CNC(=O)[C@H](CCC(N)=O)NC(=O)[C@@H](CO)NC(=O)[C@@H](N)Cc1c[nH]cn1)[C@@H](C)O)[C@@H](C)O)C(=O)N[C@@H](CO)C(=O)N[C@@H](CCCCN)C(=O)N[C@@H](Cc1ccc(O)cc1)C(=O)N[C@@H](CC(C)C)C(=O)N[C@@H](CC(=O)O)C(=O)N[C@@H](CCC(=O)O)C(=O)N[C@@H](CCCNC(=N)N)C(=O)N[C@@H](C)C(=O)N[C@@H](C)C(=O)N[C@H]1CCC(=O)NCCCC[C@@H](C(=O)N[C@@H](Cc2c[nH]c3ccccc23)C(=O)N[C@@H](CC(C)C)C(=O)N[C@@H](CC(C)C)C(=O)N[C@@H](CC(=O)O)C(=O)N[C@H](C(N)=O)[C@@H](C)O)NC(=O)[C@H](C(C)C)NC(=O)[C@H](Cc2ccccc2)NC(=O)[C@H](CC(=O)O)NC1=O)C(=O)O)C(=O)O [SEQ ID NO: 7] (H-H[dS]QGTFTSDK([γGlu-γGlu-Palmitoyl])SKYLDERAAEDFVKWLLDT-NH2; lactam 20-24; N-terminus assumed) | 1.05 | – | –
2 | B1 | – | 0.077 nM | 0.137 nM
3 | B2 | – | 0.046 nM | 0.022 nM
4 | B3 | – | 0.089 nM | 0.107 nM
5 | B4 | – | 0.928 nM | 0.056 nM
6 | B5 | – | 0.092 nM | 0.038 nM
7 | B6 | – | 0.034 nM | 0.033 nM
8 | B7 | – | 0.281 nM | 0.198 nM
9 | B8 | – | 0.06 nM | 0.29 nM
10 | B9 | – | 0.06 nM | 0.07 nM
11 | B10 | – | 0.176 nM | 0.147 nM
12 | B11 | – | 0.04 nM | 0.12 nM
13 | B12 | – | 0.079 nM | 0.044 nM
14 | B13 | – | 0.05 nM | 0.14 nM
15 | B14 | – | 0.212 nM | 0.17 nM
16 | B15 | – | 0.248 nM | 0.237 nM
17 | B16 | – | 0.1 nM | 0.17 nM
18 | B17 | – | 0.675 nM | 0.259 nM
19 | B18 | – | 0.108 nM | 0.043 nM
20 | B19 | – | 0.81 nM | 1.03 nM
